Assay results: paper PMC7615827

Molecular target: ABD-AS25 (albumin binding domain fused to monobody AS25; ABD-…-AS25-Cys)
Assay: ITC

Row | Substance | Kd [nM] | stoichiometry N
1 | Bcr-Abl SH2 domain (from UniProt P00519 127-217) (domain or fragment) | 42.4 | 1
2 | Human Serum Albumin (from UniProt P02768 25-609) (natural protein) | 5.11 | 
